Experiment: yeast display, Sf9 membrane polyspecificity reagent, FACS + sequencing; frameworks hold sequencing errors
How it was run: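 After 36–48 hours of galactose induction, yeast (Saccharomyces cerevisiae BJ5465) displaying a synthetic nanobody library were stained at 4 °C for 1 hour with 10% biotinylated, detergent-solubilized Sf9 membrane reagent. Streptavidin microbeads enriched the stained cells before FACS sorting into low and high (top ~1%) gates on anti-HA and streptavidin fluorescence. Each clone's polyreactivity label reflects its gate of origin.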

| Sequence | polyreactivity (PSR sort gate) |
| --- | --- |
| QVQLVESGGGLVQAGGSLRLSCAASGSTRYNAMGWYRQAPGKERELVAAINTSGGSTRYADSVKGRFTISRDNAKNPVYLQMNSLKPEDTAVYYCNAGNSIPGVQKVIVHGLDYWGQGTQVTVSS | high polyreactivity |
| QVQLVESGGGLVQAGGSLRLSCAASGSTSDEYAMGWYRPAPGKERELVASISSDDTSTHYADSVKGRFTISRDNAKNTVYLQMNSLKPEDTAVYYCAARNTPAYIDYNYWGQGTQVTVSS | low polyreactivity |
| QVQLVESGGGLVQAGGSLRLSCAASGSTSDINAMGLYRQAPGKERELVAVITDSSNTDYADSVKGRFTISRDNAKNTVYLQMNSLKPEDTAVYYCAADRDEPDPYDYWGQGTQVTVSS | low polyreactivity |
| QVQLVESGGGLVQAGGSLRLSCAASGSTSDIYAMGWYRQAPGKEREFVAAISLTGGTTYYADSVKGRFTISCDNAKNTVYLQMNSLKPEDTAVYYCNADVGWWGYDDDYWGQGTQVTVSS | high polyreactivity |
| QVQLVESGGGLVQAGGSLRLSCAASGSTSGQNAKGWYRQPPGNERELVAAISSSAGSTYADSVKGRFTISRDNAKNTVYLQMNSLKPEDTAVYYCNVPYYYTRGSYGYWGQGTQVTVSS | low polyreactivity |
| QVQLVESGGGLVQAGGSLRLSCAASGSTSKWYAMGWYRQAPGKERELVAAITKTGGRTYYADSVKGRFTFSRDYAKNTVYLQMNSLKPEDTAVYYCAVEYLRGFIVIYDNWGQGTQVTVSS | high polyreactivity |
| QVQLVESGGGLVQAGGSLRLSCAASGSTSPIYAMGWYRQAPGKERELVAAINGVGSTNYADSVKGRFTISRDNAKNTVYLQMNSLKPEDTAVYYCNTRYSPGYQGTEVDYWGKGTQVTVSS | low polyreactivity |
| QVQLVESGGGLVQAGGSLRLSCAASGSTSPNAMGWYRQAPGKERELVAAIWSGGTYYADSVKGRFTISRDNAKNTVYLQMNSLKPEDTAVYYCAVTGVYRGFRYGYWGQGTQVTVSS | low polyreactivity |
| QVQLVESGGGLVQAGGSLRLSCAASGSTSPRNAMGWYRQAPGKERELVAAISSGGRTNYADSVKARFTISRDNAKNTDYLQMNSLKREDTAVYYCAAEVQSTYWGQGTQVTVSS | low polyreactivity |
| QVQLVESGGGLVQAGGSLRLSCAASGSTSQRNAMGWYRQAPGKERELVAAISRSGGSTSYADSVKGRFTISRDNAKNTVYLQMNSLKPEDTAVYYCNTDRRIYRVWYYYWGQGTQVTVSS | high polyreactivity |
| QVQLVESGGGLVQAGGSLRLSCAASGSTSQRNAMGWYRQAPGKERELVAGITTSGGRTYYADSVKGRFTISRDNAKNTVYLQMNSLKPEDTAVYYCAARTQIWKYRGYYSWGQGTQVTVSS | high polyreactivity |
| QVQLVESGGGLVQAGGSLRLSCAASGSTSRGNAMGWYRQAPGKERELVAAISYIGGTTYYADSVKGRFTISRDNAKNTVYLQMNSLKPEDTAVYYCAADLYRSILKPDYDYWGQGTQVTVSS | high polyreactivity |
| QVQLVESGGGLVQAGGSLRLSCAASGSTSRLNAMGWYRQAPGKERELVAAISGSGGRTYYADSVKGRFTISRDTAKTTVYLQMNSQKPEDTAVYYCNAAYSAKVHPEMYYWGPGTQVTVSS | high polyreactivity |
| QVQLVESGGGLVQAGGSLRLSCAASGSTSSDYAMGWYRQPPGKERELVASISRSGGSTNYADSVKGRFTISRDNAKNTVYLQMNSLKPEDTAVYYCAARQSYRYYWGKGTQVTVSS | high polyreactivity |
| QVQLVESGGGLVQAGGSLRLSCAASGSTSSLYTMGWYRQAPGKERELVAAITRSGGGTYYADSVKGRFTSSRDNAKNTVYLQMNSLKPEDTAVYYCAAVQSEGRMGYWGQGTQVTVSS | high polyreactivity |
| QVQLVESGGGLVQAGGSLRLSCAASGSTSSTYSMGWYRQAPGKERELVATINWDGASTYYADSVKGRFTISRDNAKNTVYLQMNSLIPEDTAVYYCAAQSGAVHFLEDDYWGHGTQVTVSS | low polyreactivity |
| QVQLVESGGGLVQAGGSLRLSCAASGSTSSVYAMGWYRQAPGKEREFVASITRRTGITFYADSVKGRFTISRDNAKNTVYLQMNSLKPEDTAVYYCATRGGYPKGYGYLAFNYWGQGTQVTVSS | high polyreactivity |
| QVQLVESGGGLVQAGGSLRLSCAASGSTSTTYAMGWYRQAPWKERELVAAISWGGTRTYYADSVKGRFTISRDNAKNTVYLQMNSLKPEDTAVYYCNAGRRSSSGHYGYNYWGQGTQVTVSS | high polyreactivity |
| QVQLVESGGGLVQAGGSLRLSCAASGSTSVVNAMGWSRQAPGKERELVAVITISAVSTYYADSVKGRFTISRDNAKNTVYLQMNSLKPEDTAVYYCAARSYVIYDNFEYDYWGQGTQVTVSS | high polyreactivity |
| QVQLVESGGGLVQAGGSLRLSCAASGSTSYDNAMGWYRQAPGKERELDASISSDGSTNYADSVKGRFTISRDNAKNTVYLQMNSLKPEDTAVYYCNVEVTRGLSHDPEYDYWGQGTQVTVSS | low polyreactivity |
| QVQLVESGGGLVQAGGSLRLSCAASGSTSYNAMGWYRQPPGKERELVAAITSSGGRTYYADSVKGRFTISRDNAKNTVYLQMNSLKPEDTAVYYCNAPTSARRQGKDYGYWGQGTQVTVSS | high polyreactivity |
| QVQLVESGGGLVQAGGSLRLSCAASGSTSYPYAMGWYIQAPGQERELVATINYSGARTYYADSVKGRFTISRDNAKNTVYFQMNSLKPEDTAVYYCAATVYWRLEHDYWGQGTQVTVSS | low polyreactivity |

| Sequence | polyreactivity (PSR sort gate) |
| --- | --- |
| QVQLVESGGGLVQAGGSLRLSCAASGSTSYRNAMGWYRQAPGIEREFVAAISWSGGSTYYADSVKGRFTISRDNAKNTVYLQMNSLKPEDTAVYYCATTVTQWGQGTQVTVSS | low polyreactivity |
| QVQLVESGGGLVQAGGSLRLSCAASGSTSYRYAMGWYRQAPGKERELVAAIPWISDSTYYADSVKGRFTISRDNAKNTVVLQMNSLKQEDTAVYYCNTDPLVTTVTFNYWGQGTQVTVSS | low polyreactivity |
| QVQLVESGGGLVQAGGSLRLSCAASGSTSYYNAMGWYRQAPGKERELVAAISYSGGRTYYADSVKGRFTISRDNAKNTVYLQMNSLKPEDTAVYYCAKTFRGQPYLRYRYYYWGQGTQVTVSS | high polyreactivity |
| QVQLVESGGGLVQAGGSLRLSCAASGSTVFKNTMGWYRQAPGKEREFVAAIRWSTSRTYYADSVKGRFTISRDNAKNTVYLQMNSLKPEDTAVSYCNAGTSLSRRYPEDYYWGQGTLVTVSS | high polyreactivity |
| QVQLVESGGGLVQAGGSLRLSCAASGSTVGSYAMGWYRQAPGKERELVAAITLRTDSTYYADSVKGRFTISRDNAKNTVYLQMNSLKPEETAVYYCARRYRYGYDYWGQGTQVTVSS | low polyreactivity |
| QVQLVESGGGLVQAGGSLRLSCAASGSTVGVNAMGWYRQAPGKERELVAALSNGDNTYYADSVKGRFTISRDHAKNTVYLQMNSLKPEDTAVYYCAADQYWSWIYYPVVESDYWGQGTQVTVSS | low polyreactivity |
| QVQLVESGGGLVQAGGSLRLSCAASGSTVKYAMGWYRQAPGKERELVAAISSRGGSTSYADSVNGRFTISRDNAKNTVYLQMNSLKPEDTAVYSCARRIRQQRFGGNYWGQGTQVTVSS | high polyreactivity |
| QVQLVESGGGLVQAGGSLRLSCAASGSTVVYNVMGWYRQAPGKEREVVAAFRWRGGSTYADSVKGRFTISRDNAKNTVYLQMNCLKPEDTAVYYCAAGIPRYWYAGHYDYWGQGTQVTVSS | low polyreactivity |
| QVQLVESGGGLVQAGGSLRLSCAASGSTVWWYAMGWDRQAPRKERELVAVITRSSDSTSYADSVKGRFTLSRDNAKNTVFLQMNSLKPEDTAVYYCAALYRSYRYEYYYWGQATQVTVSS | high polyreactivity |
| QVQLVESGGGLVQAGGSLRLSCAASGSTVYAYAMGWYRQAPGKERELVAAIDSGGSTYYADSVKGRFTISRDNAKNTVNLQMNSLKPEDTAVYYCAVRHRYTRAYWGRDYWGQGTQVTVSS | low polyreactivity |
| QVQLVESGGGLVQAGGSLRLSCAASGSTYDPNAMGRYRQAPGKERELVAAISWSGGSTYYADSVKGRFTISRDNAKNTVYLQMYSLKPEDTAVSYCNAQFYDSYSYTNDYWGQGTLVTVSS | low polyreactivity |
| QVQLVESGGGLVQAGGSLRLSCAASGSTYEYNAMGWSRQAPGKERELVASSTNYADSVKGRFTISRDNAKNTVYLQMNSLKPEDTAVYYCAREQCVNRNHDYWGQGTQVTVSS | low polyreactivity |
| QVQLVESGGGLVQAGGSLRLSCAASGSTYEYNAMGWYRQAPGKERELVAGISSGGSTYYADSVKGRFTISRDNAKNTVYLQMNSLKPEDTAVYYCATSEASVATWDRYTELDYWGQGSQVTVSS | low polyreactivity |
| QVQLVESGGGLVQAGGSLRLSCAASGSTYGDNAMGWYRQAPGKERELVAAISSGGGSTYYADSVKGRFTISRDNAKNTVYLQMYSLNPEDTAVYYCGADGTLTLYRYILDYWGQGYQVTVSS | low polyreactivity |
| QVQLVESGGGLVQAGGSLRLSCAASGSTYGGNAMGWYRQAPGKERELVAAISRSGSRTYYADSVKGRFTISRDNAKNTVYLQMNSLKPEDTAVYYCAARRWVWTVRYNYWGQGTQVTVSS | high polyreactivity |
| QVQLVESGGGLVQAGGSLRLSCAASGSTYGRNAMGWYRQATGKERELVAAINSGGGTYYADSVKGRFTISRDNAKNTVYLQMYSLKPEDTAVYYCAAARRYGKYDYWGQGTQVTVSS | low polyreactivity |
| QVQLVESGGGLVQAGGSLRLSCAASGSTYGWNAMGWSRQAPGKERELVAAISSSGGITYYADSVKGRFTISRDNAKNTVYLQMNSLKPEDTAVYYCAAERDVDWVNYWGQGTQVTVSS | low polyreactivity |
| QVQLVESGGGLVQAGGSLRLSCAASGSTYGYAMGWYRQAPGKEMKLVARITWRGGSTSYADSVKGRFTITRDNAKNTVYLQMNSLKPEDTAVYYCADGFYFQVYTYVRKRYYYWGQGTQVTVSS | high polyreactivity |
| QVQLVESGGGLVQAGGSLRLSCAASGSTYGYYTMGWYRQAPGKERELVAAITWSGGSTYYADSVKGRFTISRDIAKNTVYLQMNSLKPEDTAVYYCAADDYWTPFGYWGQCTQVTVSS | low polyreactivity |
| QVQLVESGGGLVQAGGSLRLSCAASGSTYRANAMGWYRQAPVKERELFASITNSGSSTYYADSVKGRFTISRDNAKNTVYLQMNSLKPEDTAVYYCNAERTIAGYYYWGQGTQVTVSS | low polyreactivity |
| QVQLVESGGGLVQAGGSLRLSCAASGSTYRGYAMGWYRQAPGKERELVAAISWSGAATYYADSVKGRFTISRDNAKNTVYLQMNSLKPEDTAVYYCAKVARQNWFRYNYDYWGQGTQVTVSS | high polyreactivity |

From the nanobody polyreactivity screen of Harvey et al. (2022)
